This data set deals with SARS-CoV-2 spike RBD protein (SARS-CoV-2, UniProt P0DTC2 319-541). The experiment in a line: electrochemical aptasensor.

B1: thiolated SARS-CoV-2 RBD aptamer (Song et al. 2020) (ssDNA)
DNA: TTTTTCCAGCCACCGACCTTGTGCTTTGGGAGTGCTGGTCCAAGGGCGTTAAGGACA
modifications: 5'-thiol, TCEP reduced, immobilized on SPCE/HA-LSCF
With B1, the binding result is reported as “binds”.
